According to paper PMC11643043:

Target: soluble CD20^Avi
Assay: SEC-MALS

soluble CD20^Avi was tested. Which stoichiometry N did it give?
The stoichiometry N was 2.
